Eleven molecules from publication PMC9433092, “Closely related type II-C Cas9 orthologs recognize diverse PAMs” can be followed below.

Common to all, as to experiment: HEK293T cells
Common to all, as to details: tags: NLS and HA tags, kept

One data set addresses T1, Nsp2-SmuCas9 (synthetic).
T1 chain: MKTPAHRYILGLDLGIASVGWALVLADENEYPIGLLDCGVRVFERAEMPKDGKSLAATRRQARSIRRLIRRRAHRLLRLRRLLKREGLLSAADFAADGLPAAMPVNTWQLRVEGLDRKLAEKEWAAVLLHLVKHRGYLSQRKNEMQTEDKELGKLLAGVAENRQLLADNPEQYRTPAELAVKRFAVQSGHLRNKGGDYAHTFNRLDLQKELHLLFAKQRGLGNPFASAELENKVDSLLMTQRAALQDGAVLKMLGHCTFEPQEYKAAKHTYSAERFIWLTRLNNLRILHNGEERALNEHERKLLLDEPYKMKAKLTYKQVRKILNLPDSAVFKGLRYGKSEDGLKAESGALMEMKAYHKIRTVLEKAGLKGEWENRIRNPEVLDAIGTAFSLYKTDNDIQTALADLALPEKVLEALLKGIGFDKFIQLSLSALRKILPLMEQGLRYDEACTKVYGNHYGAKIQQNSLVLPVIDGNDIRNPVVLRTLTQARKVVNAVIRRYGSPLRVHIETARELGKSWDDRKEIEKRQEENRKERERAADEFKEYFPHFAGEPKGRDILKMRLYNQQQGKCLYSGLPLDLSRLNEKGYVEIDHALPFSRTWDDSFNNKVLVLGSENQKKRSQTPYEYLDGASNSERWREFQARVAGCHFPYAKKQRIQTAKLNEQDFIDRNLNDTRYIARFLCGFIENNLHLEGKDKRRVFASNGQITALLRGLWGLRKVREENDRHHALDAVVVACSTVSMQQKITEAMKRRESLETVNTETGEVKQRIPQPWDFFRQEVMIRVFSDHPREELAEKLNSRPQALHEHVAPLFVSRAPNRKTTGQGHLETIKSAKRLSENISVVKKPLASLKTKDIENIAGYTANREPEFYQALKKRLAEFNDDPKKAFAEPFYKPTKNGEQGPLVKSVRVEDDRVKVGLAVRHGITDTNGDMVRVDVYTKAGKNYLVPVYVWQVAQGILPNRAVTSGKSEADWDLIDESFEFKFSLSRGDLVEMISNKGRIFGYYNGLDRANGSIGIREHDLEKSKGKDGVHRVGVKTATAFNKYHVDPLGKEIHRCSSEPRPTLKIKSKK

For another data set, the target named is T2, NarCas9 (Neisseria arctica, UniProt A0A0J0YQ19).
T2 sequence: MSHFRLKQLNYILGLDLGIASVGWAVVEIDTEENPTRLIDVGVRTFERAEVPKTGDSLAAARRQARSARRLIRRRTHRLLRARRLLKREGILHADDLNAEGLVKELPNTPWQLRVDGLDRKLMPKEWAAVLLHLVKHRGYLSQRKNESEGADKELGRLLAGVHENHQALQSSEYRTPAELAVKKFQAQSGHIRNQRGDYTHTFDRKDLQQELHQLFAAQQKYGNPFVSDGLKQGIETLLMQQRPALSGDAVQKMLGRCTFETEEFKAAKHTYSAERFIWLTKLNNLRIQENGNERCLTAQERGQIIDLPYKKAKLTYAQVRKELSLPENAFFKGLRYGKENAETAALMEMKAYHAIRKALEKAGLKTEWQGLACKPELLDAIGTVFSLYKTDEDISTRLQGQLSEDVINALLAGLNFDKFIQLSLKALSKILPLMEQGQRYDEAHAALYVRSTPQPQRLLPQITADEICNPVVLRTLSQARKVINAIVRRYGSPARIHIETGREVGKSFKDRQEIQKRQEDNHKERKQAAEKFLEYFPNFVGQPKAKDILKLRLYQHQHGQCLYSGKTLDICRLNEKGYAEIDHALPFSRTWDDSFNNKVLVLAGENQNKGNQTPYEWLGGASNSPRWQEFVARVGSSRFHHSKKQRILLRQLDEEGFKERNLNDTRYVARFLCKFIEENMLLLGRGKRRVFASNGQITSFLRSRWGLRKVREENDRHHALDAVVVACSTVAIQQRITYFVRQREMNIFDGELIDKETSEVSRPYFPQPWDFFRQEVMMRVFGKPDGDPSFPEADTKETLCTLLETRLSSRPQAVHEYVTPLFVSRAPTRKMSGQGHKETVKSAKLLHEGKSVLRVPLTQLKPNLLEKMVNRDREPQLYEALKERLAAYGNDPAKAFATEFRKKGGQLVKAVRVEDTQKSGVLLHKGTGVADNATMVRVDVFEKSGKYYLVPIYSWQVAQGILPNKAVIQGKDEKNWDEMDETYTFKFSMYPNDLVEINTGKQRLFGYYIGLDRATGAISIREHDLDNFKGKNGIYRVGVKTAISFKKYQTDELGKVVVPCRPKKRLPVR

The next data set deals with T3, Nme2-SmuCas9 (synthetic).
T3 chain: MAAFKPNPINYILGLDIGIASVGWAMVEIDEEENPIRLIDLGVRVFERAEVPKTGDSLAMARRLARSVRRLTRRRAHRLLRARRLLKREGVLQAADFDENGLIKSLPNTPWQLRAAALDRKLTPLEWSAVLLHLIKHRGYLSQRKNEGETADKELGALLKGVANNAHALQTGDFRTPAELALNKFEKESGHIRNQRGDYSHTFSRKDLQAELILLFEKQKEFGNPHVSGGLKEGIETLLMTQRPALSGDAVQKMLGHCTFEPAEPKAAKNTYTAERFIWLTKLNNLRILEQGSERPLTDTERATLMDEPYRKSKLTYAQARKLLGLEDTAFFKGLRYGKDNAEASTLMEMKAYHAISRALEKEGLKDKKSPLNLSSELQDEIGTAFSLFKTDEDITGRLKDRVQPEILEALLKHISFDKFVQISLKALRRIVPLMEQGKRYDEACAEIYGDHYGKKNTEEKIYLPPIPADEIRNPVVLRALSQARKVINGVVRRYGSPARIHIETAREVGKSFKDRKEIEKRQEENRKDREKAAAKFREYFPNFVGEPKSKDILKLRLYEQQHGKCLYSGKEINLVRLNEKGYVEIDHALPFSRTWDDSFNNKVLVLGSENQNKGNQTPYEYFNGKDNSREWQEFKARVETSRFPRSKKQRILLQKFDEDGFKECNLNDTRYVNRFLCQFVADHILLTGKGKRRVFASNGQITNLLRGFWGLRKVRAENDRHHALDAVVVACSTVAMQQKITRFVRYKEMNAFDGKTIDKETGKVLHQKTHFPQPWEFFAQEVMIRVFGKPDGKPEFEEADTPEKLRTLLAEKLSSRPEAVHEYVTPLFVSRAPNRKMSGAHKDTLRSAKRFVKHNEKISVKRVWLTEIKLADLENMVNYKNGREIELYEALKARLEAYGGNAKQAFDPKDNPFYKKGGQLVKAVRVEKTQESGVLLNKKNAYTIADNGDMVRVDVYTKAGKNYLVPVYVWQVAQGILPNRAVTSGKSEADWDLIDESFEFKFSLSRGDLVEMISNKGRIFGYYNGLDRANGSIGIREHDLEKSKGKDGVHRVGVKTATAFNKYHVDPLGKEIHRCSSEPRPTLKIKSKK

Positions count from the first letter of the chain named.

B1: AAVS1 TS6 (mixed)
RNA: GUGAACUGGAGUGUGACAGCCUGGUUGUAGCUCCCUUUCUCAUUUCGGAAACGAAAUGAGAACCGUUGCUACAAUAAGGCCGUCUGAAAAGAUGUGCCGCAACGCUCUGCCCCUUAAAGCUUCUGCUUUAAGGGGCAUCGUUUAUUUUUUU
DNA 1: TGAACTGGAGTGTGACAGCCTGGGGCCCAG
DNA 2: CTGGGCCCCAGGCTGTCACACTCCAGTTCA
As for B1, in the data set with Nsp2-SmuCas9, the indel frequency came out at 6.16 % indels.

B2: AAVS1 TS4 (mixed)
RNA: GCUGUCCCCUCCACCCCACAGUGGUUGUAGCUCCCUUUCUCAUUUCGGAAACGAAAUGAGAACCGUUGCUACAAUAAGGCCGUCUGAAAAGAUGUGCCGCAACGCUCUGCCCCUUAAAGCUUCUGCUUUAAGGGGCAUCGUUUAUUUUUUU
DNA 1: CTGTCCCCTCCACCCCACAGTGGGGCCACT
DNA 2: AGTGGCCCCACTGTGGGGTGGAGGGGACAG
B2: the indel frequency is 5.75 % indels with NarCas9 and 6.53 % indels with Nsp2-SmuCas9.

B3: EMX1 TS10 (mixed)
RNA: GACUGACUGGAUGUGCACAGCAGGUUGUAGCUCCCUUUCUCAUUUCGGAAACGAAAUGAGAACCGUUGCUACAAUAAGGCCGUCUGAAAAGAUGUGCCGCAACGCUCUGCCCCUUAAAGCUUCUGCUUUAAGGGGCAUCGUUUAUUUUUUU
DNA 1: ACTGACTGGATGTGCACAGCAGTGACCG
DNA 2: CGGTCACTGCTGTGCACATCCAGTCAGT
In turn, B3 yielded an indel frequency in the data set with Nsp2-SmuCas9 of 5.48 % indels.

B4: EMX1 TS9 (mixed)
RNA: GUAAGACGAAUUGUAGAAAGGAGGUUGUAGCUCCCUUUCUCAUUUCGGAAACGAAAUGAGAACCGUUGCUACAAUAAGGCCGUCUGAAAAGAUGUGCCGCAACGCUCUGCCCCUUAAAGCUUCUGCUUUAAGGGGCAUCGUUUAUUUUUUU
DNA 1: TAAGACGAATTGTAGAAAGGAGAGATCAC
DNA 2: GTGATCTCTCCTTTCTACAATTCGTCTTA
B4: the indel frequency in the data set with Nsp2-SmuCas9 was 16 % indels.

B5: EMX1 TS13 (mixed)
RNA: GGUGGUAGAGGGAGCAGUAUGAGUUGUAGCUCCCUUUCUCAUUUCGGAAACGAAAUGAGAACCGUUGCUACAAUAAGGCCGUCUGAAAAGAUGUGCCGCAACGCUCUGCCCCUUAAAGCUUCUGCUUUAAGGGGCAUCGUUUAUUUUUUU
DNA 1: GGTGGTAGAGGGAGCAGTATGAGAGTCTGG
DNA 2: CCAGACTCTCATACTGCTCCCTCTACCACC
As for B5, the indel frequency in the data set with NarCas9 was found to be 18.4 % indels; with Nme2-SmuCas9 it was 12.2 % indels; with Nsp2-SmuCas9 it was 35.6 % indels.

B6: GRIN2B TS17 (mixed)
RNA: GUGCAGUUAGGGAAUAAGCCCCAGUUGUAGCUCCCUUUCUCAUUUCGGAAACGAAAUGAGAACCGUUGCUACAAUAAGGCCGUCUGAAAAGAUGUGCCGCAACGCUCUGCCCCUUAAAGCUUCUGCUUUAAGGGGCAUCGUUUAUUUUUUU
DNA 1: TGCAGTTAGGGAATAAGCCCCAGTGTCAAG
DNA 2: CTTGACACTGGGGCTTATTCCCTAACTGCA
Consider B6, for which the results for the indel frequency in the data set with NarCas9 and with Nsp2-SmuCas9 were 7.65 % indels and 23.2 % indels, respectively.

B7: AAVS1 TS5 (mixed)
RNA: GGUCUGAGGGUGGAGGGACUGGGUUGUAGCUCCCUUUCUCAUUUCGGAAACGAAAUGAGAACCGUUGCUACAAUAAGGCCGUCUGAAAAGAUGUGCCGCAACGCUCUGCCCCUUAAAGCUUCUGCUUUAAGGGGCAUCGUUUAUUUUUUU
DNA 1: GGTCTGAGGGTGGAGGGACTGGGGGCCTGG
DNA 2: CCAGGCCCCCAGTCCCTCCACCCTCAGACC
With B7, the indel frequency worked out at 13.2 % indels with NarCas9, 14.5 % indels in the data set with Nme2-SmuCas9 and 17.8 % indels with Nsp2-SmuCas9.

B8: EMX1 TS14 (mixed)
RNA: GCCAAGACGGUGACCAGACUCAAGUUGUAGCUCCCUUUCUCAUUUCGGAAACGAAAUGAGAACCGUUGCUACAAUAAGGCCGUCUGAAAAGAUGUGCCGCAACGCUCUGCCCCUUAAAGCUUCUGCUUUAAGGGGCAUCGUUUAUUUUUUU
DNA 1: CCAAGACGGTGACCAGACTCAAGTTACTGA
DNA 2: TCAGTAACTTGAGTCTGGTCACCGTCTTGG
In the data set with Nsp2-SmuCas9, B8 registered an indel frequency of 16.5 % indels.

B9: AAVS1 TS3 (mixed)
RNA: GUCUGACCUGCAUUCUCUCCCCUGUUGUAGCUCCCUUUCUCAUUUCGGAAACGAAAUGAGAACCGUUGCUACAAUAAGGCCGUCUGAAAAGAUGUGCCGCAACGCUCUGCCCCUUAAAGCUUCUGCUUUAAGGGGCAUCGUUUAUUUUUUU
DNA 1: TCTGACCTGCATTCTCTCCCCTGGGCCTGT
DNA 2: ACAGGCCCAGGGGAGAGAATGCAGGTCAGA
As to B9, the indel frequency with NarCas9 was 9.89 % indels; with Nsp2-SmuCas9 it was 17.9 % indels.

B10: AAVS1 TS1 (mixed)
RNA: GCAGCAUAGGGUGGCAAAGCCCAGUUGUAGCUCCCUUUCUCAUUUCGGAAACGAAAUGAGAACCGUUGCUACAAUAAGGCCGUCUGAAAAGAUGUGCCGCAACGCUCUGCCCCUUAAAGCUUCUGCUUUAAGGGGCAUCGUUUAUUUUUUU
DNA 1: CAGCATAGGGTGGCAAAGCCCAGGGCCAGG
DNA 2: CCTGGCCCTGGGCTTTGCCACCCTATGCTG
In the case of B10, the indel frequency with NarCas9 stood at 10.9 % indels; in the data set with Nsp2-SmuCas9, 16.7 % indels.

B11: AAVS1 TS2 (mixed)
RNA: B10 RNA with A6G, U7C, G9A, G10A, G14A, A18U, C20G
DNA 1: CAGCGCAAAGTGACAATGGCCAGGGCCAGG
DNA 2: CCTGGCCCTGGCCATTGTCACTTTGCGCTG
Consider B11, for which the indel frequency in the data set with Nsp2-SmuCas9 came out at 12.4 % indels.
